Reference: PMC10094494

Molecular target: D-psicose 3-epimerase from Iocasia fonsfrigidae strain SP3-1 (Iocasia fonsfrigidae strain SP3-1)
Test: native gel or EMSA; native-PAGE of the purified recombinant enzyme, run like SDS-PAGE but without SDS, beta-mercaptoethanol and heat

- stoichiometry N: 2
Substance: D-psicose 3-epimerase from Iocasia fonsfrigidae strain SP3-1 (enzyme)
